T1: murine KIT (murine, UniProt P05532 25-527, limits assumed)
T1 sequence (looked up): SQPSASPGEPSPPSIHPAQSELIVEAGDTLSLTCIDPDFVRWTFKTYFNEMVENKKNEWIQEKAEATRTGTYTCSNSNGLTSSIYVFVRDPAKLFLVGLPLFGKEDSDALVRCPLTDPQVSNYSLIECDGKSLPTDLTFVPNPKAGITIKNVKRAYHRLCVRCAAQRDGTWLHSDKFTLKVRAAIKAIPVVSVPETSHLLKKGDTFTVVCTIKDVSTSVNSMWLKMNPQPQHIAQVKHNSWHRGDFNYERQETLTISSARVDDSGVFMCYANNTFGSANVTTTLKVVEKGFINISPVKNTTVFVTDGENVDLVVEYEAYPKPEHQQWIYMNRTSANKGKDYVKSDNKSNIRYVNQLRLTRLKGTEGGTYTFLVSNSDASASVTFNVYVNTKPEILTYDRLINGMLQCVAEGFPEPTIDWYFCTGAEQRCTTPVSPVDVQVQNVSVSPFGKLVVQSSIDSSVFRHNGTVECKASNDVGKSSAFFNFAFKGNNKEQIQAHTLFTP

B1: Hum8 (antibody, V domains shown)
VH: QVQLVQSGAEVKKPGASVKLSCKASGYTFTDYYINWVRQAPGKGLEWIARIYPGSGNTYYNEKFKGRATLTADKSTSTAYMQLSSLRSEDTAVYFCARGVYYFDYWGQGTTVTVSS
VL: DIVMTQSPSSLSASVGDRVTITCKASQNVRTNVAWYQQKPGKAPKALIYSASYRYSGVPDRFTGSGSGTDFTLTISSLQPEDFADYFCQQYNSYPRTFGGGTKVEIK
B2: Hum15 (antibody, V domains shown)
VH: B1 VH with L20V, A68V, L70I, Q82E
VL: B1 VL with T63S
B3: Hum18 (antibody, V domains shown)
VH: B1 VH
VL: B1 VL with A46S, T63S, D85T, F87Y
B4: Hum17 (antibody, V domains shown)
VH: B1 VH with R38K, D73E
VL: B1 VL with A46S, T63S, D85T, F87Y
B5: Hum19 (antibody, V domains shown)
VH: B1 VH with L20V, L70I, Q82E
VL: B1 VL with A46S, T63S, D85T, F87Y
B6: Hum4 (antibody, V domains shown)
VH: B1 VH with L20V, L70I, Q82E
VL: B1 VL with S10F, P80S
B7: Hum10 (antibody, V domains shown)
VH: B1 VH with L20V, A68V, L70I, Q82E
VL: B1 VL

Changes are numbered by the printed parent chain.

T2 sequence (P10721 other isoform, or with tags, fused parts or gaps limits assumed): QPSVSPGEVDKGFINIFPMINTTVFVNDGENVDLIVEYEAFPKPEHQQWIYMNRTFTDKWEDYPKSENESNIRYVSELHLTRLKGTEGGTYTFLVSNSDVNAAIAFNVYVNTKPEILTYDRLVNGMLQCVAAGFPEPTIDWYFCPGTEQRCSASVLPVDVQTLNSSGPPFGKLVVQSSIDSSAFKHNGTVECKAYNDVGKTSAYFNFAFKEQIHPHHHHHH

The first experiment concerns the target T2, recombinant KIT D4/D5 (human, UniProt P10721 26-519).
T2 construct: also called recombinant c-Kit Ig-like domains D4/D5; recombinant polypeptide of the D4/D5 region of human KIT
Kind of experiment: direct binding ELISA, plate-coated recombinant KIT D4/D5; assay #3 (purified). Here is the method:
(§1) The binding affinity of the anti-KIT antibodies to the target antigen KIT Ig-like domains D4/D5 was assessed by direct binding ELISA. […] Bound antibody was detected with anti-human Ig-HRP followed by detection using TMB substrate.
Turning to B1, the Relative binding activity is 0.89 relative to chimeric antibody 37C (normalized EC50).
As for B2, the Relative binding activity is 0.87 relative to chimeric antibody 37C (normalized EC50).
The same measure, in the same setting: with B3 the figure was 0.99 relative to chimeric antibody 37C (normalized EC50); with B4, 0.98 relative to chimeric antibody 37C (normalized EC50).
Still for that read-out and setting: the figure for B5 is 0.95 relative to chimeric antibody 37C (normalized EC50).
The same measure, in the same setting: with B6 the figure was 1.07 relative to chimeric antibody 37C (normalized EC50).
As to B7, the Relative binding activity was 0.87 relative to chimeric antibody 37C (normalized EC50).

In the next experiment the target is T2, recombinant KIT D4/D5. Kind of experiment: solid phase ELISA, plate-adsorbed recombinant D4/D5 region of human KIT (FIG. 5). Here is the method:
Recombinant antigen corresponding to the D4/D5 region of the KIT extracellular domain (see FIG. 2) was absorbed onto 96-well microtiter plates. In particular, recombinant antigen (5 μg) were diluted into 10 mL of borate buffer, and 100 μL of the antigen solution were added to each well of a 96 well plate and were incubated at 4° C. overnight.
ELISA: Following one rinse with TBS-T, blocking buffer (200 μL) was added to each well of the plate with the adsorbed antigen and was incubate at room temperature for one hour. Then, the blocking buffer was removed, and the serially diluted solutions of test antibodies and controls were added to the plate in a volume of 50 μL and incubated at room temperature for one hour. The antibody solutions were removed, and the plate was washed three times with 100 μL of wash buffer on a plate washer. After the last wash, the plate was blotted dry. Secondary antibody solution was diluted 1:8000 and was added to each well in a volume of 100 μL and allowed to incubate for one hour at room temperature. The diluted secondary antibody solution was removed, and the plate was washed three times with 100 μL of wash buffer on a plate washer. Then, freshly mixed TMB substrate solution was added to each well in a volume of 100 μL and was allowed to incubate at room temperature for 30 minutes. Subsequently, 100 μL of 2N H₂SO₄ were added to each well and immediately read on the plate reader. An irrelevant antibody served as the negative control, and an anti-KIT antibody against the D4 and/or D5 domain of the extracellular region of KIT served as the positive control. OD values for each sample were obtained at a wavelength of 450 nm.
Results were analyzed using Graph Pad Prism and Excel to obtain the concentration of antibodies at 50% binding to antigen.
A general note: In an ELISA, binding on a coated surface is turned into a signal by an enzyme label.
As to B1, the 50% effective concentration (EC50) (usually the concentration needed to bring the measured effect to its halfway point) is ~11 pM.
The same measure, in the same setting: the figure for B4 is ~6.6 pM.
Consider B6, for which the EC50 is ~7.5 pM.
B7: the EC50 is ~23 pM.

For another experiment, the target named is T3, full-length, wild-type human KIT expressed on CHO cells (human, UniProt P10721 26-976). The experiment can be described thus: cell-based or functional assay.
T3 sequence (P10721 other isoform, or with tags, fused parts or gaps limits assumed): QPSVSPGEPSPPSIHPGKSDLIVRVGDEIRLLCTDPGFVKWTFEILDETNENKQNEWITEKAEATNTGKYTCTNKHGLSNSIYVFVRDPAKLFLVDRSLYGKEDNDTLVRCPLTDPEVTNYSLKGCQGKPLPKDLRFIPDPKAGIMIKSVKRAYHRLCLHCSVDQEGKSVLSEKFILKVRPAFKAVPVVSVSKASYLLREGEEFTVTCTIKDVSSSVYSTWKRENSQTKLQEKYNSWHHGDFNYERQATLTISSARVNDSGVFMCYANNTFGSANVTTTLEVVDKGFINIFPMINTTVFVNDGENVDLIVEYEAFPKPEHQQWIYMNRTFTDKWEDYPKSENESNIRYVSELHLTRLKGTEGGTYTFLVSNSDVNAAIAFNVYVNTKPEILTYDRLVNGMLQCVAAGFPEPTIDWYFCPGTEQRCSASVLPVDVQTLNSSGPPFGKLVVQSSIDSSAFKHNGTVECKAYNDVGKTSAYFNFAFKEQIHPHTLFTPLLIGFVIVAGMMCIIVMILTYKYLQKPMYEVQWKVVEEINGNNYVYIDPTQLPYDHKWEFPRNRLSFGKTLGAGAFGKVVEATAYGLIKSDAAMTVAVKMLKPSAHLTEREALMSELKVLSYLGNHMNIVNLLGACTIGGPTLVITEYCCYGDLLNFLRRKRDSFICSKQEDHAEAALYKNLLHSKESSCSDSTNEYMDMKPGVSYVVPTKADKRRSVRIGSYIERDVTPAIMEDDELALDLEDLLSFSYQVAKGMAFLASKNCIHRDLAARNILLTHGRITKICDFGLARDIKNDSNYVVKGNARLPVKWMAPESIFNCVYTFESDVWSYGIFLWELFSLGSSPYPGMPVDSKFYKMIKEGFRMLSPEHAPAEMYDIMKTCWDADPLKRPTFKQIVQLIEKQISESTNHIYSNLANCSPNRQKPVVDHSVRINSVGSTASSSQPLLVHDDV
In the case of B1, the “Relative blocking activity, assay #3 (96-well): IC50 of inhibition of SCF-induced KIT phosphorylation, normalized to chimeric 37M antibody” value is 1.01 relative to chimeric 37M antibody and the “Relative blocking activity, assay #4 (96-well): IC50 of inhibition of SCF-induced KIT phosphorylation, normalized to chimeric 37M antibody” value is 1.12 relative to chimeric 37M antibody.
For the molecule B2, the “Relative blocking activity, assay #1 (24-well): IC50 of inhibition of SCF-induced KIT phosphorylation, normalized to chimeric 37M antibody” value is 0.98 relative to chimeric 37M antibody and the “Relative blocking activity, assay #3 (96-well): IC50 of inhibition of SCF-induced KIT phosphorylation, normalized to chimeric 37M antibody” value is 0.99 relative to chimeric 37M antibody.
Regarding B3, the “Relative blocking activity, assay #2 (24-well): IC50 of inhibition of SCF-induced KIT phosphorylation, normalized to chimeric 37M antibody” value is 1.22 relative to chimeric 37M antibody.
Regarding B4, the “Relative blocking activity, assay #2 (24-well): IC50 of inhibition of SCF-induced KIT phosphorylation, normalized to chimeric 37M antibody” value was 1.39 relative to chimeric 37M antibody and the “Relative blocking activity, assay #4 (96-well): IC50 of inhibition of SCF-induced KIT phosphorylation, normalized to chimeric 37M antibody” value is 1.07 relative to chimeric 37M antibody.
As for B5, the “Relative blocking activity, assay #1 (24-well): IC50 of inhibition of SCF-induced KIT phosphorylation, normalized to chimeric 37M antibody” value was 1.09 relative to chimeric 37M antibody; the “Relative blocking activity, assay #3 (96-well): IC50 of inhibition of SCF-induced KIT phosphorylation, normalized to chimeric 37M antibody” value was 0.98 relative to chimeric 37M antibody; the “Relative blocking activity, assay #4 (96-well): IC50 of inhibition of SCF-induced KIT phosphorylation, normalized to chimeric 37M antibody” value was 1.4 relative to chimeric 37M antibody.
On to B6, for which the “Relative blocking activity, assay #2 (24-well): IC50 of inhibition of SCF-induced KIT phosphorylation, normalized to chimeric 37M antibody” value is 1.2 relative to chimeric 37M antibody and the “Relative blocking activity, assay #4 (96-well): IC50 of inhibition of SCF-induced KIT phosphorylation, normalized to chimeric 37M antibody” value was 0.86 relative to chimeric 37M antibody.
Taken in the same sequence, the figures for B7 were 0.82 relative to chimeric 37M antibody and 0.86 relative to chimeric 37M antibody.

The next experiment deals with T2, recombinant KIT D4/D5. Kind of experiment: direct binding ELISA, plate-coated recombinant KIT D4/D5; assay #2 (supernatant). How it is done:
as §1
Consider B1, for which the Relative binding activity is 0.62 relative to chimeric antibody 37C (normalized EC50).
The same measure, in the same setting: the figure for B2 is 0.76 relative to chimeric antibody 37C (normalized EC50); for B3 it is 0.79 relative to chimeric antibody 37C (normalized EC50); for B4 it is 0.76 relative to chimeric antibody 37C (normalized EC50).
Regarding B5, the Relative binding activity is 1.05 relative to chimeric antibody 37C (normalized EC50).
For B6, the Relative binding activity is 0.91 relative to chimeric antibody 37C (normalized EC50).
Consider B7, for which the Relative binding activity was 0.88 relative to chimeric antibody 37C (normalized EC50).

Another experiment concerns the target T3, full-length, wild-type human KIT …. The experiment can be described thus: cell-based or functional assay. This is another data set of the same source.
As for B1, the “50% inhibition concentration (IC50), SCF-induced KIT tyrosine phosphorylation, cell-based phospho-KIT ELISA” value was ~542 pM.
On to B4, for which the “50% inhibition concentration (IC50), SCF-induced KIT tyrosine phosphorylation, cell-based phospho-KIT ELISA” value was ~510 pM.
The same measure, in the same setting: with B6 the figure was ~470 pM; with B7, ~510 pM.

The target is the same in another experiment. Kind of experiment: flow cytometry on CHO cells expressing full-length wild-type human KIT (FIG. 6). Here is the method: Briefly, parental CHO cells and CHO/KIT-WT cells were washed and incubated with 0.01 nM, 0.1 nM, 1 nM or 10 nM of a chimeric (human-mouse) 37M antibody, antibody Hum17, Hum8, Hum4, or Hum10, a negative control isotype IgG antibody, or a commercial anti-KIT antibody as a positive control. The samples were processed for flow cytometry analysis. More specifically, cells were removed from the culture flasks using EDTA, and washed with PBS. Then, the cells were resuspended in media and counted. Each sample containing approximately 200,000 to 250,000 cells was spun, the media was removed, and the cells were resuspended in FC buffer (1% BSA, 0.01% sodium azide in 1×PBS) for the blocking step. The cells were incubated in FC buffer for 1 hour on ice. Then, primary antibody (e.g., a chimeric (human-mouse) 37M antibody, Hum17, Hum8, Hum4, Hum10, positive control anti-KIT antibody, or negative control antibody) was added to the cells in FC buffer as described above. The samples were mixed and incubated on ice for 1 hour, followed by washing the cells with 0.5-1 mL FC buffer. The FC buffer was removed by spinning the cells at 1200 rpm for 3 minutes at 4° C., decanting the liquid. The cell pellets were resuspended in 200 μL FC buffer, and secondary antibody (DyLight 488 AffiniPure Goat Anti-Mouse IgG Jackson Laboratories) was added to the cells at a 1:1000 to 1:2000 dilution. The samples were mixed and incubated on ice for 1 hour, and then washed as described above. The samples were run on a fluorescence activated cell sorter (FACS) machine (Accuri FlowCytometer C6). Samples were analyzed by following channel FLA-1 for DyLight-conjugated samples.
A general note: A flow cytometer gives signals particle by particle.
For B1, the EC50 was ~83 pM.
The same measure, in the same setting: the figure for B4 is ~139 pM; for B6 it is ~106 pM; for B7 it is ~132 pM.

A further experiment has as its target T1, murine KIT. Kind of experiment: additional binding assays (format not described).
As for B1, the binding result was “no binding”.
In the case of B4, the binding result is “no binding”.
The same measure, in the same setting: with B6 the entry was “no binding”.
The same measure, in the same setting: with B7 the entry was “no binding”.

In another experiment the target is T2, recombinant KIT D4/D5. The experiment can be described thus: direct binding ELISA, plate-coated recombinant KIT D4/D5; assay #1 (supernatant). Here is the method:
as §1
With B1, the Relative binding activity was 1.02 relative to chimeric antibody 37C (normalized EC50).
On the same count and under the same terms, the figure for B2 is 0.87 relative to chimeric antibody 37C (normalized EC50).
B3: the Relative binding activity is 1.22 relative to chimeric antibody 37C (normalized EC50).
On the same count and under the same terms, the figure for B4 is 1.17 relative to chimeric antibody 37C (normalized EC50).
Still for that read-out and setting: with B5 the figure was 1.11 relative to chimeric antibody 37C (normalized EC50); with B7, 1.1 relative to chimeric antibody 37C (normalized EC50).

The next experiment concerns the target T2, recombinant KIT D4/D5. Kind of experiment: direct binding ELISA, plate-coated recombinant KIT D4/D5; assay #4 (purified). Here is the method:
as §1
Regarding B1, the Relative binding activity is 0.75 relative to chimeric antibody 37C (normalized EC50).
For the molecule B4, the Relative binding activity is 0.72 relative to chimeric antibody 37C (normalized EC50).
On the same count and under the same terms, the figure for B5 is 0.85 relative to chimeric antibody 37C (normalized EC50); for B6 it is 0.83 relative to chimeric antibody 37C (normalized EC50).
On the same count and under the same terms, with B7 the figure was 0.72 relative to chimeric antibody 37C (normalized EC50).

These data come from patent US20190106510A1 (CELLDEX THERAPEUTICS, published 2019).
